How the values were obtained:
Assay type in all cases: biochemical
[1] = Carboxylate reductase activity assay (pimelate to pimelate semialdehyde); conditions: purified enzyme enhanced by sfp gene product, 2 mM pimelate, 1 mM ATP, 1 mM NADPH, pH 7.5, room temperature, 20 min, against empty vector control
Protocol: A sequence encoding a HIS-tag was added to the genes from Segniliparus rugosus and Segniliparus rotundus that encode the carboxylate reductases of SEQ ID NOs: 4 and 7, respectively (see FIGS. 7C and 7F), such that N-terminal HIS tagged carboxylate reductases could be produced. Each of the modified genes was cloned into a pET Duet expression vector along with a sfp gene encoding a HIS-tagged phosphopantetheine transferase from Bacillus subtilis, both under the T7 promoter. Each expression vector was transformed into a BL21[DE3] E. coli host and the resulting recombinant E. coli strains were cultivated at 37° C. in a 250 mL shake flask culture containing 50 mL LB media and antibiotic selection pressure, with shaking at 230 rpm. Each culture was induced overnight at 37° C. using an auto-induction media.
The pellet from each induced shake flask culture was harvested via centrifugation. Each pellet was resuspended and lysed via sonication, and the cell debris was separated from the supernatant via centrifugation. […]
Enzyme activity assays (i.e., from pimelate to pimelate semialdehyde) were performed in triplicate in a buffer composed of a final concentration of 50 mM HEPES buffer (pH=7.5), 2 mM pimelate, 10 mM MgCl2, 1 mM ATP and 1 mM NADPH. […] The consumption of NADPH was monitored by absorbance at 340 nm.

[2] = Thioesterase enzyme activity assay using pimeloyl-CoA as substrate, forming pimelate; conditions: 667 μM pimeloyl-CoA, 0.8 μM tesB gene product, pH 7.4, 37° C., 20 min, compared to empty vector control
Protocol: A sequence encoding an N-terminal His tag was added to the tesB gene from Escherichia coli that encodes a thioesterase (SEQ ID NO 1, see FIG. 7A), such that an N-terminal HIS tagged thioesterase could be produced. The modified tesB gene was cloned into a pET15b expression vector under control of the T7 promoter. The expression vector was transformed into a BL21[DE3] E. coli host. The resulting recombinant E. coli strain was cultivated at 37° C. in a 500 mL shake flask culture containing 50 mL Luria Broth (LB) media and antibiotic selection pressure, with shaking at 230 rpm. The culture was induced overnight at 17° C. using 0.5 mM IPTG.
The pellet from the induced shake flask culture was harvested via centrifugation. The pellet was resuspended and lysed in Y-per™ solution (ThermoScientific, Rockford, Ill.). The cell debris was separated from the supernatant via centrifugation. […]
The enzyme activity assay was performed in triplicate in a buffer composed of 50 mM phosphate buffer (pH=7.4), 0.1 mM Ellman's reagent, and 667 μM of pimeloyl-CoA (as substrate). […] The release of Coenzyme A was monitored by absorbance at 412 nm. The absorbance associated with the substrate only control, which contained boiled enzyme, was subtracted from the active enzyme assay absorbance and compared to the empty vector control.

[3] = Carboxylate reductase activity assay (N7-acetyl-7-aminoheptanoate to N7-acetyl-7-aminoheptanal); conditions: purified enzyme enhanced by sfp gene product, 2 mM N7-acetyl-7-aminoheptanoate, 1 mM ATP, 1 mM NADPH, pH 7.5, room temperature, 20 min, against empty vector control
Protocol: The activity of each of the N-terminal His-tagged carboxylate reductases of SEQ ID NOs: 3, 6, and 7 (see Example 4, and FIGS. 7B, 7E, and 7F) for converting N7-acetyl-7-aminoheptanoate to N7-acetyl-7-aminoheptanal was assayed in triplicate in a buffer composed of a final concentration of 50 mM HEPES buffer (pH=7.5), 2 mM N7-acetyl-7-aminoheptanoate, 10 mM MgCl2, 1 mM ATP, and 1 mM NADPH. The assays were initiated by adding purified carboxylate reductase and phosphopantetheine transferase or the empty vector control to the assay buffer containing the N7-acetyl-7-aminoheptanoate then incubated at room temperature for 20 min. The consumption of NADPH was monitored by absorbance at 340 nm.

B1: SEQ ID NO 4: Segniliparus rugosus carboxylate reductase, Genbank Accession No. EFV11917.1 (protein, listed as Segniliparus rugosus)
chain: MGDGEERAKRFFQRIGELSATDPQFAAAAPDPAVVEAVSDPSLSFTRYLDTLMRGYAERPALAHRVGAGYETISYGELWARVGAIAAAWQADGLAPGDFVATVGFTSPDYVAVDLAAARSGLVSVPLQAGASLAQLVGILEETEPKVLAASASSLEGAVACALAAPSVQRLVVFDLRGPDASESAADERRGALADAEEQLARAGRAVVVETLADLAARGEALPEAPLFEPAEGEDPLALLIYTSGSTGAPKGAMYSQRLVSQLWGRTPVVPGMPNISLHYMPLSHSYGRAVLAGALSAGGTAHFTANSDLSTLFEDIALARPTFLALVPRVCEMLFQESQRGQDVAELRERVLGGRLLVAVCGSAPLSPEMRAFMEEVLGFPLLDGYGSTEALGVMRNGIIQRPPVIDYKLVDVPELGYRTTDKPYPRGELCIRSTSLISGYYKRPEITAEVFDAQGYYKTGDVMAEIAPDHLVYVDRSKNVLKLSQGEFVAVAKLEAAYGTSPYVKQIFVYGNSERSFLLAVVVPNAEVLGARDQEEAKPLIAASLQKIAKEAGLQSYEVPRDFLIETEPFTTQNGLLSEVGKLLRPKLKARYGEALEARYDEIAHGQADELRALRDGAGQRPVVETVVRAAVAISGSEGAEVGPEANFADLGGDSLSALSLANLLHDVFEVEVPVRIIIGPTASLAGIAKHIEAERAGASAPTAASVHGAGATRIRASELTLEKFLPEDLLAAAKGLPAADQVRTVLLTGANGWLGRFLALEQLERLARSGQDGGKLICLVRGKDAAAARRRIEETLGTDPALAARFAELAEGRLEVVPGDVGEPKFGLDDAAWDRLAEEVDVIVHPAALVNHVLPYHQLFGPNVVGTAEIIRLAITAKRKPVTYLSTVAVAAGVEPSSFEEDGDIRAVVPERPLGDGYANGYGNSKWAGEVLLREAHELVGLPVAVFRSDMILAHTRYTGQLNVPDQFTRLVLSLLATGIAPKSFYQQGAAGERQRAHYDGIPVDFTAEAITTLGAEPSWFDGGAGFRSFDVFNPHHDGVGLDEFVDWLIEAGHPISRIDDHKEWFARFETAVRGLPEAQRQHSLLPLLRAYSFPHPPVDGSVYPTGKFQGAVKAAQVGSDHDVPHLGKALIVKYADDLKALGLL
For B1, the “acceptance of pimelate as substrate (consumption of NADPH, absorbance at 340 nm)” value [1] was “accepted pimelate as substrate”.

B2: tesB: Escherichia coli thioesterase encoded by tesB, GenBank Accession No. AAA24665.1 (protein, listed as Escherichia coli)
chain: MSQALKNLLTLLNLEKIEEGLFRGQSEDLGLRQVFGGQVVGQALYAAKETVPEERLVHSFHSYFLRPGDSKKPIIYDVETLRDGNSFSARRVAAIQNGKPIFYMTASFQAPEAGFEHQKTMPSAPAPDGLPSETQIAQSLAHLLPPVLKDKFICDRPLEVRPVEFHNPLKGHVAEPHRQVWIRANGSVPDDLRVHQYLLGYASDLNFLPVALQPHGIGFLEPGIQIATIDHSMWFHRPFNLNEWLLYSVESTSASSARGFVRGEFYTQDGVLVASTVQEGVMRNHN
For B2, the “acceptance of pimeloyl-CoA as substrate (release of Coenzyme A, absorbance at 412 nm)” value [2] was “acceped pimeloyl-CoA as substrate”.

B3: SEQ ID NO 6: Mycobacterium massiliense carboxylate reductase, Genbank Accession No. EIV11143.1 (protein)
chain: MTNETNPQQEQLSRRIESLRESDPQFRAAQPDPAVAEQVLRPGLHLSEAIAALMTGYAERPALGERARELVIDQDGRTTLRLLPRFDTTTYGELWSRTTSVAAAWHHDATHPVKAGDLVATLGFTSIDYTVLDLAIMILGGVAVPLQTSAPASQWTTILAEAEPNTLAVSIELIGAAMESVRATPSIKQVVVFDYTPEVDDQREAFEAASTQLAGTGIALETLDAVIARGAALPAAPLYAPSAGDDPLALLIYTSGSTGAPKGAMHSENIVRRWWIREDVMAGTENLPMIGLNFMPMSHIMGRGTLTSTLSTGGTGYFAASSDMSTLFEDMELIRPTALALVPRVCDMVFQRFQTEVDRRLASGDTASAEAVAAEVKADIRDNLFGGRVSAVMVGSAPLSEELGEFIESCFELNLTDGYGSTEAGMVFRDGIVQRPPVIDYKLVDVPELGYFSTDKPHPRGELLLKTDGMFLGYYKRPEVTASVFDADGFYMTGDIVAELAHDNIEIIDRRNNVLKLSQGEFVAVATLEAEYANSPVVHQIYVYGSSERSYLLAVVVPTPEAVAAAKGDAAALKTTIADSLQDIAKEIQLQSYEVPRDFIIEPQPFTQGNGLLTGIAKLARPNLKAHYGPRLEQMYAEIAEQQAAELRALHGVDPDKPALETVLKAAQALLGVSSAELAADAHFTDLGGDSLSALSFSDLLRDIFAVEVPVGVIVSAANDLGGVAKFVDEQRHSGGTRPTAETVHGAGHTEIRAADLTLDKFIDEATLHAAPSLPKAAGIPHTVLLTGSNGYLGHYLALEWLERLDKTDGKLIVIVRGKNAEAAYGRLEEAFDTGDTELLAHFRSLADKHLEVLAGDIGDPNLGLDADTWQRLADTVDVIVHPAALVNHVLPYNQLFGPNVVGTAEIIKLAITTKIKPVTYLSTVAVAAYVDPTTFDEESDIRLISAVRPIDDGYANGYGNAKWAGEVLLREAHDLCGLPVAVFRSDMILAHSRYTGQLNVPDQFTRLILSLIATGIAPGSFYQAQTTGERPLAHYDGLPGDFTAEAITTLGTQVPEGSEGFVTYDCVNPHADGISLDNFVDWLIEAGYPIARIDNYTEWFTRFDTAIRGLSEKQKQHSLLPLLHAFEQPSAAENHGVVPAKRFQHAVQAAGIGPVGQDGTTDIPHLSRRLIVKYAKDLEQLGLL
modifications: Mycobacterium massiliense
In the case of B3, the “acceptance of N7-acetyl-7-aminoheptanoate as substrate (consumption of NADPH, absorbance at 340 nm)” value [3] is reported as “accepted N7-acetyl-7-aminoheptanoate as substrate”.
